The record followed here is the supplement of paper PMC12764529.

A short description of data set [1]: folding stability dG unfold from trypsin proteolysis; higher = more stable. The gist of the method: (§1)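 Sequencing followed digestion of designed mini-proteins with trypsin and chymotrypsin, each at 11 concentrations in threefold dilutions together with a no-protease condition. The mini-proteins were under 80 residues, had no cysteine, sat in a PA-tagged cDNA display construct, and were kept only if AlphaFold2 dimer inter-PAE was above 15. From the counts, Bayesian fitting gave K50, and unfolding free energy was derived against a sequence-predicted unfolded-state K50 and a shared folded-state K50, per protease or combined.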

A short description of data set [2]: folding stability dG unfold from chymotrypsin proteolysis; higher = more stable. The gist of the method:
as §1

The nature of data set [3]: folding stability dG unfold (combined trypsin and chymotrypsin); higher = more stable. The gist of the method: as §1

± gives the half width of the 95% confidence interval.

On to “SMTPEEEAKRKAEEEAEKLKEEIKKKLKEEGVPKNVTFKFERDIEITLTDENGNVIGTRKIKIKFTVPLPSA [r9_494_JUSTAS]”, for which the “folding stability dG unfold” value is 8.97 ± 1.21 kJ/mol in data set [1], 7.5 ± 0.544 kJ/mol in data set [2] and 7.73 ± 1.63 kJ/mol in data set [3].

Consider “SMTVKIELEVEIEVPETPEELRKLAEALAEELGIEEVKVVEIEYDPETKTVRVKVEITVKLPPPPPEEEESA [r9_918_TrROS_Hall]”, for which the “folding stability dG unfold” value was determined as 13 ± 0.586 kJ/mol in data set [1], 12.1 ± 1.05 kJ/mol in data set [2] and 13.1 ± 0.879 kJ/mol in data set [3].

As to “SMTVSATAVPFGDRLVVTVTVTVDPTLFPDRPPGPAVWERVARELARELGIDSVTLAPLPDDTFVALFDDSA [r9_883_TrMRF]”, the “folding stability dG unfold” value is 10.1 ± 0.289 kJ/mol in data set [1], 10.3 ± 0.167 kJ/mol in data set [2] and 10.4 ± 0.351 kJ/mol in data set [3].

Turning to “SMTVTLPDGTTVETSVSTEKLPNGTVVTTTTTTFTTPDGTVVPSTTVSVSPAPPTELPFTVLYRPEGSLLSA [r9_1168_JUSTAS]”, the “folding stability dG unfold” value in data set [1] was 0.326 ± 0.0628 kJ/mol; in data set [2] it was -0.512 ± 0.669 kJ/mol; in data set [3], 0.0265 ± 0.347 kJ/mol.

For “SMVEVLPDGTVVLAGELPPNVSIEEFLNSLPGLEIASVEFEPDPETGVTHFVFVVTPDGRVYVGSVPLGKSA [r9_238_TrMRF]”, the “folding stability dG unfold” value in data set [1] came out at 5.23 ± 0.167 kJ/mol; in data set [2] it was 11 ± 0.172 kJ/mol; in data set [3] it was 9.39 ± 0.234 kJ/mol.

On to “SMVFVEIFYDPIKKKKYIKIVIFLPPNDPEKIKELAEKIKKEIEKFFEELGLKVDKIEVFVFTFPPDFPLSA [r9_117_TrMRF]”, for which the “folding stability dG unfold” value was 14.1 ± 0.962 kJ/mol in data set [1], 20.9 ± 0.28 kJ/mol in data set [2] and 19.2 ± 0.92 kJ/mol in data set [3].

Consider “SMVKIYAAPNVPPEQREAIERLVKRILENPDIPIDPETIGKLIKEEAGNPELTIDRIEILPLVPPGVAEKSA [r9_620_TrMRF]”, for which the “folding stability dG unfold” value in data set [1] was 3.3 ± 0.268 kJ/mol; in data set [2] it was 3.75 ± 0.343 kJ/mol; in data set [3], 3.32 ± 0.414 kJ/mol.

Consider “SMVLELPAKDLKLEVNEDGTLKLTIKLENGKKVTFTFPAGDKITKIEVLSPDKVKIIFEKKPLKDLKTFLSA [r9_501_TrMRF]”, for which the “folding stability dG unfold” value in data set [1] turned out to be 4.6 ± 0.197 kJ/mol; in data set [2], 7.38 ± 0.31 kJ/mol; in data set [3] it was 6.74 ± 0.795 kJ/mol.

On to “SMVTVETRPEEVLPDAEGRLRRVTVVITFPDGKTLTVDMEFPPDVSDEEVEERLRALVEELGVESIELLGSA [r9_1203_JUSTAS]”, for which the “folding stability dG unfold” value in data set [1] was 15.5 ± 0.46 kJ/mol; in data set [2], 7.59 ± 0.36 kJ/mol; in data set [3], 12.5 ± 0.711 kJ/mol.

As for “SMVTVTFPDASPEEIRAAIEAHPDRDVVLVTAPGKEEELEKILKEYDYTKEEKALPDGRKVRVMKVKVPRSA [r9_1138_JUSTAS]”, the “folding stability dG unfold” value in data set [1] came out at 3.28 ± 0.586 kJ/mol; in data set [2], 0.737 ± 1.76 kJ/mol; in data set [3], 1.93 ± 1.05 kJ/mol.

As to “SMYKVKVKLLITNPKTGEKLEVEVEATLEEAEKLAEELEKKYPELNWKVEIKEIEIYPIPKPVLVKPGEASA [r9_14_TrMRF]”, the “folding stability dG unfold” value in data set [1] stood at 10.3 ± 1.42 kJ/mol; in data set [2] it was 14.7 ± 0.402 kJ/mol; in data set [3] it was 14.5 ± 0.92 kJ/mol.

On to “SNFPPGQQIKFTFRLPDNGMKIKIEVHVHPDGYVQVRMERENPDNGKRVKITFYVPGPTLDEILDFIEQFSA [r9_618_TrROS]”, for which the “folding stability dG unfold” value in data set [1] came to 12.4 ± 0.377 kJ/mol; in data set [2] it was 16.11 ± 0.159 kJ/mol; in data set [3], 14.7 ± 0.335 kJ/mol.

With “SNIEIEPYQPGEPREYEIPPGKLKITFYQDPGPMYIRVKDPGNGEPVEIPIPMERGDWDNAAKKILKAIKSA [r9_982_TrROS]”, the “folding stability dG unfold” value in data set [1] came to 3.39 ± 0.586 kJ/mol; in data set [2], 1.9 ± 1.13 kJ/mol; in data set [3] it was 3.36 ± 1.34 kJ/mol.

Consider “SNIRIEVDPPNGVIRVTYTFPGDSLSDIKDEIVEYIQKLGFPIEVDIDKIEPMNNYWRVTAYIKIPPGAISA [r9_347_TrROS]”, for which the “folding stability dG unfold” value in data set [1] worked out at 13.4 ± 0.397 kJ/mol; in data set [2], 19.1 ± 0.234 kJ/mol; in data set [3], 17.5 ± 0.36 kJ/mol.

In the case of “SNNNEVTIEIMIMFKYPRPEYDPDNGKPEPEPVYFMFPIKIEGKADDPEDAKRAADNILDRFLKDPDYIMSA [r9_77_TrROS]”, the figures for the “folding stability dG unfold” value in data set [1], in data set [2] and in data set [3] were 7.47 ± 0.502 kJ/mol, 12.3 ± 0.188 kJ/mol and 10.9 ± 0.711 kJ/mol, respectively.
